Measured values as given in patent publication US20250222125A1, “Anti-FGFR2b Antibodies, Conjugates and Methods of Use” (BeiGene, Ltd., priority 2024, published 2025).
Like-named read-outs stand apart in the source and are kept apart here.

Experiments:
[1] = target: soluble human FGFR2b protein (his tag, in-house generated) (human) (UniProt P21802); experiment: SPR, antibody captured by anti-human Fc, human FGFR2b
[2] = target: human FGFR2c protein (recombinant, coated on ELISA plates) (human) (UniProt P21802); experiment: ELISA, plate-coated human FGFR2c
[3] = target: human FGFR2b on cells (human) (UniProt P21802); experiment: flow cytometry, Expi293 cells overexpressing human FGFR2b
[4] = target: soluble human FGFR2b protein (his tag, in-house generated) (human) (UniProt P21802); experiment: SPR (Biacore 8K), antibody captured by anti-human Fc, soluble human FGFR2b-his as analyte
[5] = target: mouse FGFR2b on cells (mouse) (UniProt P21803); experiment: flow cytometry, Expi293 cells overexpressing mouse FGFR2b
[6] = target: human FGFR2c on cells (human) (UniProt P21802); experiment: flow cytometry, Expi293 cells overexpressing human FGFR2c
[7] = target: human FGFR2b protein (recombinant, coated on ELISA plates) (human) (UniProt P21802); experiment: ELISA, plate-coated human FGFR2b
[8] = target: human FGFR2b protein (recombinant, coated on ELISA plates) (human) (UniProt P21802); experiment: ELISA, plate-coated human FGFR2b; remark: listed apart in the source
[9] = target: human FGFR2c on cells (human) (UniProt P21802); experiment: flow cytometry, human FGFR2c OE cells
[10] = target: human FGFR2b on cells (human) (UniProt P21802); experiment: flow cytometry, human FGFR2b OE cells
[11] = target: mouse FGFR2b on cells (mouse) (UniProt P21803); experiment: flow cytometry, murine FGFR2b OE cells

Chain of human FGFR2b protein (recombinant, coated on ELISA plates) (human) (P21802 other isoform, or with tags, fused parts or gaps limits assumed): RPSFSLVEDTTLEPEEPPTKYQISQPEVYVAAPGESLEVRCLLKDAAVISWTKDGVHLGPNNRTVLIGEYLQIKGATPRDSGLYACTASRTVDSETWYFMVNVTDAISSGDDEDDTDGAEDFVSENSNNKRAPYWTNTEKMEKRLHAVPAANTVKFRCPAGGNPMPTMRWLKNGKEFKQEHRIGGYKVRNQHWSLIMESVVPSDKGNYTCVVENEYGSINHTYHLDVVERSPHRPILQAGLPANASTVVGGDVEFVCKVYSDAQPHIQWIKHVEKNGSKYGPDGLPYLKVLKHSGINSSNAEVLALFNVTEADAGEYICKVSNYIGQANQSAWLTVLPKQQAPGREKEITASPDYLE
Chain of human FGFR2c on cells (human) (P21802 22-821): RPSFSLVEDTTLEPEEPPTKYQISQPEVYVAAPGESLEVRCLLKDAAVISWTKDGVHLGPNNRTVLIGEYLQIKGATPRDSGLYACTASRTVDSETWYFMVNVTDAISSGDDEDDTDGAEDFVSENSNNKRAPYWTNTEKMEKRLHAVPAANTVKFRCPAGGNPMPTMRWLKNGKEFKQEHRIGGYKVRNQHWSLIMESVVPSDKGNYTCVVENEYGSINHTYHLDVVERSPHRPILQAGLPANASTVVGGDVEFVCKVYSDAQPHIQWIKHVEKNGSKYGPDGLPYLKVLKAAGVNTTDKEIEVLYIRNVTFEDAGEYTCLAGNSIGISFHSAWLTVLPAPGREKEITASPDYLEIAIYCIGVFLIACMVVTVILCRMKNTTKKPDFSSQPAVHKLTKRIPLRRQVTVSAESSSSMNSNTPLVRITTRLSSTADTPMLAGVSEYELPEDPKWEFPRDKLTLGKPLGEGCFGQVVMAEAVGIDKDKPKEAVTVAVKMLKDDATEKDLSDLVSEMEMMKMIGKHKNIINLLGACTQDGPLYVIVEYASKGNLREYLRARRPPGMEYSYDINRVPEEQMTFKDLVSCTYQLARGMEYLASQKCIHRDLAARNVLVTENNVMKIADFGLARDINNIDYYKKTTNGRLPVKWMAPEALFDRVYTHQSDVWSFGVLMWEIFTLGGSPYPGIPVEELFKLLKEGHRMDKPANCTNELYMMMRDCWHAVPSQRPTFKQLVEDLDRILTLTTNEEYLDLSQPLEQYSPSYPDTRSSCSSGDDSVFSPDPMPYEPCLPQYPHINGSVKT
Chain of human FGFR2b on cells (human) (P21802 other isoform, or with tags, fused parts or gaps limits assumed): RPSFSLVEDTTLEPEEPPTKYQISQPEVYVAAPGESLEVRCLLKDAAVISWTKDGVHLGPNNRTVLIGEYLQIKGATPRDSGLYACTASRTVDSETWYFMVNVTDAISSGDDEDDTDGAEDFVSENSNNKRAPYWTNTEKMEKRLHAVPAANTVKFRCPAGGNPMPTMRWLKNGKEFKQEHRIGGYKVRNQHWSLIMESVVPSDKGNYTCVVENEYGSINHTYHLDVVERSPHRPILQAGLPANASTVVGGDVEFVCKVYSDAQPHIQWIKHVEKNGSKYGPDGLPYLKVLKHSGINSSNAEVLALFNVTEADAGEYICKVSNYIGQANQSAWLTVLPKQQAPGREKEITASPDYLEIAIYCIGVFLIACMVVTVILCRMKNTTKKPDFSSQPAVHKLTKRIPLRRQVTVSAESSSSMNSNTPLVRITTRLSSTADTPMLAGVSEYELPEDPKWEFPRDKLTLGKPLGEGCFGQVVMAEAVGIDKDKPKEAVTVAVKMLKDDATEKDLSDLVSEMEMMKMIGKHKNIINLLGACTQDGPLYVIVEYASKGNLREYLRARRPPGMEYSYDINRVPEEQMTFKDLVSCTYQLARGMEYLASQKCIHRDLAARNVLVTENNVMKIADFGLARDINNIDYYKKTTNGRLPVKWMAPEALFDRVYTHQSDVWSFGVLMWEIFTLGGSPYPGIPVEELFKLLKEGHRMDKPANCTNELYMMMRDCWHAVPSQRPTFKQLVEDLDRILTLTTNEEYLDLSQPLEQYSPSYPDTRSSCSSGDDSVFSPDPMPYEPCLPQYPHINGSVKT

B1: BGAh9179 (antibody, human IgG1, kappa, V domains shown)
VH: QVQLVQSGAEVKKPGASVKVSCKASGYTITDTYIHWVRQAPGQGLEWMGRIDPAEGNTMFASEFQGRVTMTADTSTSTVYMELSSLRSEDTAVYYCARSKIHYDYDEGFAYWGQGTLVTVSS
VL: DIVLTQSPDSLAVSLGERATINCRASESVDDYGYSFLHWYQQKPGQPPKLLIYRASNLESGVPDRFSGSGSGTDFTLTISSLQAEDVAVYYCQQSNQNPRTFGGGTKVEIKR
Kd [1]: 21.8 nM | koff [1]: 0.00178 s⁻¹ | kon [1]: 81600 M⁻¹ s⁻¹ | Emax (A450) [2]: 0.086 A450 | EC50 [3]: 3.29 nM | Emax (MFI) [3]: 2.98e+06 MFI | Kd [4]: 13.9 nM | koff [4]: 0.00112 s⁻¹ | kon [4]: 80600 M⁻¹ s⁻¹ | EC50 [5]: 4.25 nM | Emax (MFI) [5]: 5.15e+06 MFI | Emax (MFI) [6]: 21700 MFI | EC50 [7]: 0.0518 nM | Emax (A450) [7]: 2.99 A450

B2: BGAm1823 (antibody, V domains shown)
VH: EVQLQQSGAELVKPGASVKISCKASGYAFSIYWMNWVKQRPGKGLEWIGQIYPENGDTNYNGKFKGKATLTADKSSSTAYMHLSSLTSEDSAVYFCARGGFDYWGQGTTLTVSS
VL: NIVMTQSPASLSASVGETVTITCRASENIYSNLAWYQQKQGKSPQLLVYTATNLADGVPSRFSGSGSGTQFSLKINSLQPEDFGSYYCQHFYGILYTFGSGTRLEIK
Kd [1]: 24.2 nM | koff [1]: 0.00185 s⁻¹ | kon [1]: 76300 M⁻¹ s⁻¹ | Emax (A450) [2]: 0.116 A450 | EC50 [3]: 2.12 nM | Emax (MFI) [3]: 3.09e+06 MFI | EC50 [5]: 3.37 nM | Emax (MFI) [5]: 5.19e+06 MFI | Emax (MFI) [6]: 22600 MFI | EC50 [7]: 0.0442 nM | Emax (A450) [7]: 2.95 A450

B3: BGAm1371 (antibody, V domains shown)
VH: QVQLKQSGAELVKPGASVKLSCTASGFNIKDTYIHWVKQRPEQGLEWIGRIDPANGNTMFASEFQGKATITAYTSSNTAYMQLSSLTSGDTAVYYCARSKIHYDYDEGFAYWGQGTLVTVSS
VL: NIVLTQSPPSLAVSLGQRATVSCRASESVDDYGYSFLHWYQQKPGQPPKLLIYRASNLESGIPARFSGSGSRTDFTLTINPVETDDVATYYCQQSNQNPRTFGGGTKLEIK
EC50 [8]: 0.19 nM | Emax (OD450) [8]: 3.35 OD450 | Kd [1]: 16.3 nM | koff [1]: 0.00119 s⁻¹ | kon [1]: 72900 M⁻¹ s⁻¹ | Emax (A450) [2]: 0.204 A450 | Emax (OD450) [2]: 0.07 OD450 | Emax (MFI) [9]: 33 MFI | EC50 [3]: 1.5 nM | Emax (MFI) [3]: 3.05e+06 MFI | EC50 [10]: 1.25 nM | EC50 [5]: 3.5 nM | Emax (MFI) [5]: 4.98e+06 MFI | Emax (MFI) [6]: 23100 MFI | EC50 [7]: 0.0309 nM | Emax (A450) [7]: 3.01 A450 | EC50 [11]: 1.78 nM

B4: BGAh9239 (antibody, human IgG1, kappa, V domains shown)
VH: QVQLVQSGAEVKKPGSSVKVSCKASGYTFSIYWLNWVRQAPGQGLEWMGQIYPENADTNYSGKFKGRVTITADKSTSTAYMELSSLRSEDTAVYFCARGGFDYWGQGTLVTVSS
VL: DIQMTQSPSSLSASVGDRVTITCRASENIYSNLAWYQQKPGKAPKLLIYTATNLAEGVPSRFSGSGSGTDFTLTISSLQPEDFATYYCQHFYGILYTFGQGTRLEIKR
EC50 [8]: 0.26 nM | Emax (OD450) [8]: 3.37 OD450 | Kd [1]: 37.3 nM | koff [1]: 0.003 s⁻¹ | kon [1]: 80500 M⁻¹ s⁻¹ | Emax (A450) [2]: 0.13 A450 | Emax (OD450) [2]: 0.07 OD450 | Emax (MFI) [9]: 36 MFI | EC50 [3]: 2.4 nM | Emax (MFI) [3]: 3.08e+06 MFI | Kd [4]: 24.7 nM | koff [4]: 0.00189 s⁻¹ | kon [4]: 76600 M⁻¹ s⁻¹ | EC50 [10]: 1.84 nM | EC50 [5]: 2.67 nM | Emax (MFI) [5]: 5.1e+06 MFI | Emax (MFI) [6]: 23800 MFI | EC50 [7]: 0.031 nM | Emax (A450) [7]: 2.94 A450 | EC50 [11]: 1.59 nM

B5: BGA1421 (antibody, human IgG1, kappa, V domains shown)
VH: QVQLVQSGAEVKKPGSSVKVSCKASGYIFTTYNVHWVRQAPGQGLEWIGSIYPDNGDTSYNQNFKGRATITADKSTSTAYMELSSLRSEDTAVYYCARGDFAYWGQGTLVTVSS
VL: DIQMTQSPSSLSASVGDRVTITCKASQGVSNDVAWYQQKPGKAPKLLIYSASYRYTGVPSRFSGSGSGTDFTFTISSLQPEDIATYYCQQHSTTPYTFGQGTKLEIKR
EC50 [8]: 0.61 nM | Emax (OD450) [8]: 2.62 OD450 | Emax (OD450) [2]: 0.09 OD450 | Emax (MFI) [9]: 40 MFI | Kd [4]: 22.2 nM | koff [4]: 0.00232 s⁻¹ | kon [4]: 104000 M⁻¹ s⁻¹ | EC50 [10]: 0.48 nM | EC50 [11]: 0.81 nM
